Reference: article PMC5636753, “Structural basis for DAXX interaction with ATRX” (Protein & Cell, 2017)
Read-outs that look alike come from different tables or passages of the source.

T1: DAXX helical bundle (DHB) domain, DAXX_(55–144) (UniProt Q9UER7 55-144)
T1 chain: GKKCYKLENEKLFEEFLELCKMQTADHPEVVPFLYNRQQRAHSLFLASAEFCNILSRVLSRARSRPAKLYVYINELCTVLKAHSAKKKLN

T2: DAXX Y124A (Homo sapiens)
T2 chain: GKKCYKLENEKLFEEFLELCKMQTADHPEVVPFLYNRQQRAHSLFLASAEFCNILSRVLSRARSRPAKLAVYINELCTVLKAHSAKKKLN

T3: DAXX V84A (Homo sapiens)
T3 chain: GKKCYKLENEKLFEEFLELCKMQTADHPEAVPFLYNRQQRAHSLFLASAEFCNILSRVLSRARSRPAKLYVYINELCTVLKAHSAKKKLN

T4: DAXX F87A (Homo sapiens)
T4 chain: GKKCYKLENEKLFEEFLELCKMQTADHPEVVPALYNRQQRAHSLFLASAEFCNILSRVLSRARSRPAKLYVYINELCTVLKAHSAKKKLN

T5: DAXX I127A (Homo sapiens)
T5 chain: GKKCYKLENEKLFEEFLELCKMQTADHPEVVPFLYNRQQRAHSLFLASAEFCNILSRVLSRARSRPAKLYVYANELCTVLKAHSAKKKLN

T6: DAXX V125A (Homo sapiens)
T6 chain: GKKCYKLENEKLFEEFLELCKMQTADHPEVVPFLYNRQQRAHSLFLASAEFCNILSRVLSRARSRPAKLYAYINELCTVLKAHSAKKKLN

T7: ATRX_(1,188–1,326) (UniProt P46100 1188-1326)
T7 construct: Alpha-thalassemia/mental retardation syndrome X-linked protein (ATRX), residues 1188-1326
T7 sequence (looked up): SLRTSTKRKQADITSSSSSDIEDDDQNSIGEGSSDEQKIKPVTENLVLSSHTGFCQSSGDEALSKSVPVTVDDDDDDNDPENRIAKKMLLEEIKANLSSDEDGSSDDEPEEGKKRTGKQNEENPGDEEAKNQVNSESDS


What was measured:
[1] = target: T1, DAXX helical bundle (DHB) domain, …; test: ITC
[2] = target: DAXX helical bundle (DHB) domain, DAXX_(55–144) (UniProt Q9UER7); test: ITC; isothermal titration calorimetry of ATRX fragments with DAXXDHB; conditions not shown (methods in the supplement)
[3] = target: T1, DAXX helical bundle (DHB) domain, …; test: ITC
[4] = target: T2, DAXX Y124A; test: ITC
[5] = target: T3, DAXX V84A; test: ITC
[6] = target: T4, DAXX F87A; test: ITC
[7] = target: T5, DAXX I127A; test: ITC
[8] = target: T6, DAXX V125A; test: ITC
[9] = target: T7, ATRX_(1,188–1,326); test: ITC; isothermal titration calorimetry of ATRX fragments with DAXXDHB; conditions not shown (methods in the supplement); settings: both partners purified

Binder | Kd [1] [nM] | other results
ENRIAKKMLLEEIKANLSSDED (domain or fragment) [ATRXDBM with deletion of N-terminal eight residues] | 10300 | fold decrease in affinity against ATRXDBM [2]: 60 fold
DDDDDNAPANRIAKKMLLEEIKANLSSDED [ATRX 1,260–1,289 M2 (D1266A/E1268A)] | 1750 | –
ATRX_(1,253–1,326) (domain or fragment) SVPVTVDDDDDDNDPENRIAKKMLLEEIKANLSSDEDGSSDDEPEEGKKRTGKQNEENPGDEEAKNQVNSESDS | 160 | Kd [3]: 170 nM; Kd [4]: 5920 nM; Kd [5]: 2040 nM; Kd [6]: 2190 nM; Kd [7]: 810 nM; Kd [8]: 280 nM
ATRX L1277R (protein) SVPVTVDDDDDDNDPENRIAKKMLREEIKANLSSDEDGSSDDEPEEGKKRTGKQNEENPGDEEAKNQVNSESDS | 970 | –
ATRX L1276A (protein) SVPVTVDDDDDDNDPENRIAKKMALEEIKANLSSDEDGSSDDEPEEGKKRTGKQNEENPGDEEAKNQVNSESDS | 8330 | –
ATRX L1276A/I1280A (protein) SVPVTVDDDDDDNDPENRIAKKMALEEAKANLSSDEDGSSDDEPEEGKKRTGKQNEENPGDEEAKNQVNSESDS | 12000 | –
ATRX I1280Q (protein) SVPVTVDDDDDDNDPENRIAKKMLLEEQKANLSSDEDGSSDDEPEEGKKRTGKQNEENPGDEEAKNQVNSESDS | 7350 | –
ATRX L1276R (protein) SVPVTVDDDDDDNDPENRIAKKMRLEEIKANLSSDEDGSSDDEPEEGKKRTGKQNEENPGDEEAKNQVNSESDS | 73500 | –
ATRX L1276Q (protein) SVPVTVDDDDDDNDPENRIAKKMQLEEIKANLSSDEDGSSDDEPEEGKKRTGKQNEENPGDEEAKNQVNSESDS | 43300 | –
ATRX I1280A (protein) SVPVTVDDDDDDNDPENRIAKKMLLEEAKANLSSDEDGSSDDEPEEGKKRTGKQNEENPGDEEAKNQVNSESDS | 400 | –
ATRX A1272R (protein) SVPVTVDDDDDDNDPENRIRKKMLLEEIKANLSSDEDGSSDDEPEEGKKRTGKQNEENPGDEEAKNQVNSESDS | 1040 | –
ATRX I1280R (protein) SVPVTVDDDDDDNDPENRIAKKMLLEERKANLSSDEDGSSDDEPEEGKKRTGKQNEENPGDEEAKNQVNSESDS | 34800 | –
AAAAANDPENRIAKKMLLEEIKANLSSDED [ATRX 1,260–1,289 M1 (D1260A/D1261A/D1262A/D1263A/D1264A)] | 850 | –
DDDDDNDPENRIAKKMLLEEIKANLSSDED (domain or fragment) [DAXX-binding motif of ATRX, ATRX_(1,260–1,289)] | 160 | –
DAXX helical bundle (DHB) domain, DAXX_(55–144) (domain or fragment, UniProt Q9UER7 55-144, looked up, death-domain associated protein (DAXX), N-terminal DAXX helical bundle (DHB) domain; model of the crystal covers residues 57-141; Limits 55-144 are printed for the mutagenesis panel; Crystals were selenomethionine-substituted; also called DAXXDHB; DAXX DHB) GKKCYKLENEKLFEEFLELCKMQTADHPEVVPFLYNRQQRAHSLFLASAEFCNILSRVLSRARSRPAKLYVYINELCTVLKAHSAKKKLN | – | Kd [9]: 160 nM
